Measured values: the supplement of paper PMC9233669
Variants at the floor of the assay were thinned out.

Key:
[1] = tested on: biotinyl-Phe-oxazolone; test: self-aminoacylation, catalytic enhancement (BFO) (fold over background); higher = more active; k-Seq, kA / k0A0; sequences stand for … in GGGAAUGGAUCCACAUCUACGAAUUC…UUCACUGCAGACUUGACGAAGCUG
How it was run: (§1)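 Catalytic enhancement equals the median kA over the uncatalyzed rate, the latter read from the low-activity peak of a bimodal Gaussian fit. Values of kA came from fitting each sequence's fraction reacted to a pseudo-first-order model, with 1000 bootstraps. Reacted RNA was captured with streptavidin and quantified by triplicate qPCR and Illumina sequencing after 90 minutes at room temperature with 2–1250 μM biotinyl-aminoacyl-oxazolone and 0.43 μM mutagenized RNA pools bearing a 21-nt variable region.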

[2] = tested on: biotinyl-Ile-oxazolone; test: self-aminoacylation, catalytic enhancement (BIO) (fold over background); higher = more active; k-Seq, kA / k0A0; sequences stand for … in GGGAAUGGAUCCACAUCUACGAAUUC…UUCACUGCAGACUUGACGAAGCUG
How it was run: as §1

[3] = tested on: biotinyl-Met-oxazolone; test: self-aminoacylation, catalytic enhancement (BMO) (fold over background); higher = more active; k-Seq, kA / k0A0; sequences stand for … in GGGAAUGGAUCCACAUCUACGAAUUC…UUCACUGCAGACUUGACGAAGCUG
How it was run: as §1

[4] = tested on: biotinyl-Val-oxazolone; test: self-aminoacylation, catalytic enhancement (BVO) (fold over background); higher = more active; k-Seq, kA / k0A0; sequences stand for … in GGGAAUGGAUCCACAUCUACGAAUUC…UUCACUGCAGACUUGACGAAGCUG
How it was run: as §1

[5] = tested on: biotinyl-Leu-oxazolone; test: self-aminoacylation, catalytic enhancement (BLO) (fold over background); higher = more active; k-Seq, kA / k0A0; sequences stand for … in GGGAAUGGAUCCACAUCUACGAAUUC…UUCACUGCAGACUUGACGAAGCUG
How it was run: as §1

[6] = tested on: biotinyl-Trp-oxazolone; test: self-aminoacylation, catalytic enhancement (BWO) (fold over background); higher = more active; k-Seq, kA / k0A0; sequences stand for … in GGGAAUGGAUCCACAUCUACGAAUUC…UUCACUGCAGACUUGACGAAGCUG
How it was run: as §1

Sequence | self-aminoacylation [1] | self-aminoacylation [2] | self-aminoacylation [3] | self-aminoacylation [4] | self-aminoacylation [5] | self-aminoacylation [6]
AUUACCCUGGUCAUCUAGUGU [Fam2.1 aminoacylation ribozyme variant] | 9.89 | 2.02 | 4.11 | 2.48 | 4.08 | 4.88
AUUACCCUGGUCAUGGAGGGA [Fam2.1 aminoacylation ribozyme variant] | 2.1 | 1.82 | 1.83 | 1.76 | 1.86 | 2.23
AUUACCCUGGUCAUGGAGUCA [Fam2.1 aminoacylation ribozyme variant] | 0.746 | 0.907 | 0.798 | 1.01 | 0.838 | 0.594
AUUACCCUGGUCAUUGCGUGA [Fam2.1 aminoacylation ribozyme variant] | 108 | 6.44 | 15.8 | 7.31 | 18.1 | 17.1
AUUACCCUGGUCAUUUAGUGA [Fam2.1 aminoacylation ribozyme variant] | 70 | 5.57 | 11.7 | 5.82 | 11.1 | 14.4
AUUACCCUGGUCCUCGCGUGA [Fam2.1 aminoacylation ribozyme variant] | 87.3 | 5.45 | 11 | 7.66 | 15.1 | 13.8
AUUACCCUGGUCCUCGGGUGA [Fam2.1 aminoacylation ribozyme variant] | 69.6 | 5.18 | 9.89 | 6.25 | 10.4 | 9.25
AUUACCCUGGUCCUCUAGUGA [Fam2.1 aminoacylation ribozyme variant] | 79.1 | 4.37 | 9.46 | 5.33 | 10.6 | 12.3
AUUACCCUGGUCGCCGAGUGA [Fam2.1 aminoacylation ribozyme variant] | 22.8 | 3.48 | 4.14 | 2.58 | 5.59 | 4.48
AUUACCCUGGUCGUCGAAUGA [Fam2.1 aminoacylation ribozyme variant] | 3.37 | 0.785 | 1.22 | 0.838 | 0.734 | 1.1
AUUACCCUGGUCUACGAGUGA [Fam2.1 aminoacylation ribozyme variant] | 25.5 | 3.67 | 6.17 | 3.68 | 6.37 | 7.19
AUUACCCUGGUCUUCGAAUGA [Fam2.1 aminoacylation ribozyme variant] | 0.408 | 0.649 | 0.746 | 0.728 | 0.694 | 0.642
AUUACCCUGGUCUUGGAGUGA [Fam2.1 aminoacylation ribozyme variant] | 5.63 | 2.27 | 2.24 | 1.98 | 3.23 | 4.3
AUUACCCUGGUGAUCGACUGA [Fam2.1 aminoacylation ribozyme variant] | 0.543 | 1.05 | 0.951 | 1.02 | 1.12 | 0.743
AUUACCCUGGUGAUCGAGUCA [Fam2.1 aminoacylation ribozyme variant] | 0.521 | 0.912 | 0.978 | 0.859 | 0.741 | 0.415
AUUACCCUGGUGAUGGAGUGA [Fam2.1 aminoacylation ribozyme variant] | 31.1 | 2.62 | 5.67 | 2.55 | 5.75 | 5.69
AUUACCCUGGUGAUUGAGUGA [Fam2.1 aminoacylation ribozyme variant] | 57.1 | 3.55 | 7.66 | 3.55 | 7.64 | 9.23
AUUACCCUGGUUAACGAGUGA [Fam2.1 aminoacylation ribozyme variant] | 106 | 5.85 | 14.1 | 6.35 | 14.4 | 17.3
AUUACCCUGGUUACCGAGUGA [Fam2.1 aminoacylation ribozyme variant] | 78.8 | 5.43 | 11.9 | 5.65 | 12.6 | 12.3
AUUACCCUGGUUAGCGAGUGA [Fam2.1 aminoacylation ribozyme variant] | 22.1 | 2.2 | 4.21 | 2.1 | 4.28 | 5.27
AUUACCCUGGUUAUAGAGUGA [Fam2.1 aminoacylation ribozyme variant] | 117 | 6.6 | 16.7 | 6.47 | 16 | 19.1
AUUACCCUGGUUAUCGCGUGA [Fam2.1 aminoacylation ribozyme variant] | 93.6 | 4.99 | 12.4 | 6.04 | 11.6 | 13.5
AUUACCCUGGUUCUCGAGUGA [Fam2.1 aminoacylation ribozyme variant] | 8.08 | 1.78 | 2.08 | 2.2 | 3.1 | 3.34
AUUACCCUGGUUGUCGAGUGA [Fam2.1 aminoacylation ribozyme variant] | 1.97 | 1.38 | 1.91 | 1.33 | 1.85 | 3.23
AUUACCCUGUGCAUCGAGUGA [Fam2.1 aminoacylation ribozyme variant] | 16.8 | 2.47 | 6.14 | 3.05 | 5.11 | 5.89
AUUACCCUGUUCAGCGAGUGA [Fam2.1 aminoacylation ribozyme variant] | 14.4 | 2.51 | 5.05 | 2.96 | 4.4 | 6.39

Sequence | self-aminoacylation [1] | self-aminoacylation [2] | self-aminoacylation [3] | self-aminoacylation [4] | self-aminoacylation [5] | self-aminoacylation [6]
AUUACCCUGUUCAUCGCGUGA [Fam2.1 aminoacylation ribozyme variant] | 171 | 9.25 | 23.5 | 11.7 | 25.1 | 25.5
AUUACCCUUGACAUCGAGUGA [Fam2.1 aminoacylation ribozyme variant] | 50.8 | 4.31 | 10.8 | 5.25 | 11 | 13.5
AUUACCCUUGUCAACGAGUGA [Fam2.1 aminoacylation ribozyme variant] | 21.7 | 3.27 | 5.49 | 3.44 | 6.71 | 7.03
AUUACCCUUGUCACCGAGUGA [Fam2.1 aminoacylation ribozyme variant] | 50.2 | 4.01 | 8.49 | 4.31 | 9.28 | 11.1
AUUACCCUUGUCAUAGAGUGA [Fam2.1 aminoacylation ribozyme variant] | 36.6 | 4.36 | 8.7 | 4.59 | 8.53 | 11
AUUACCCUUGUCAUCCAGUGA [Fam2.1 aminoacylation ribozyme variant] | 9.92 | 2.21 | 3.41 | 2.25 | 3.44 | 3.96
AUUACCCUUGUCAUCGAGCGA [Fam2.1 aminoacylation ribozyme variant] | 0.755 | 1.49 | 1.12 | 1.19 | 1.67 | 0.631
AUUACCCUUGUUAUCGAGUGA [Fam2.1 aminoacylation ribozyme variant] | 116 | 7.09 | 15.9 | 6.96 | 14.7 | 19.6
AUUACCGUGGUCAUCCAGUGA [Fam2.1 aminoacylation ribozyme variant] | 28.8 | 3.52 | 5.39 | 3.32 | 5.29 | 6.67
AUUACCGUGGUCAUCGAGAGA [Fam2.1 aminoacylation ribozyme variant] | 0.92 | 1.11 | 0.605 | 1.18 | 0.723 | 0.794
AUUACCGUGGUCAUCGAGUAA [Fam2.1 aminoacylation ribozyme variant] | 1.2 | 1.42 | 1.35 | 1.58 | 1.56 | 1.93
AUUACCGUGGUCAUCGUGUGA [Fam2.1 aminoacylation ribozyme variant] | 5.4 | 1.3 | 1.64 | 1.25 | 2.49 | 2.03
AUUACCGUGGUCAUGGAGUGA [Fam2.1 aminoacylation ribozyme variant] | 12.2 | 2.27 | 3.21 | 2.37 | 3.43 | 3.69
AUUACCUUGGACAUCGAGUGA [Fam2.1 aminoacylation ribozyme variant] | 26.3 | 3.16 | 5.7 | 2.9 | 6.08 | 7.94
AUUACCUUGGUCAUCGAGUGG [Fam2.1 aminoacylation ribozyme variant] | 1.64 | 1.67 | 2.08 | 1.45 | 2.13 | 0.873
AUUACCUUGGUCAUUGAGUGA [Fam2.1 aminoacylation ribozyme variant] | 32.4 | 4.08 | 8.51 | 4.11 | 7.89 | 10.2
AUUACGCGGGUCAUCGAGUGA [Fam2.1 aminoacylation ribozyme variant] | 22.7 | 3.23 | 5.54 | 3.31 | 4.86 | 5.54
AUUACGCUGGACAUCGAGUGA [Fam2.1 aminoacylation ribozyme variant] | 16.1 | 2.63 | 4.42 | 2.98 | 4.51 | 4.65
AUUACGCUGGCCAUCGAGUGA [Fam2.1 aminoacylation ribozyme variant] | 32.4 | 4.5 | 6.9 | 4.76 | 5.89 | 8.46
AUUACGCUGGUCAUAGAGUGA [Fam2.1 aminoacylation ribozyme variant] | 7.49 | 2.33 | 3.31 | 2.23 | 3.54 | 4.14
AUUACGCUGGUCAUCCAGUGA [Fam2.1 aminoacylation ribozyme variant] | 12.8 | 2.27 | 3.63 | 1.96 | 3.99 | 4.31
AUUACGCUGGUCAUCGAGUAA [Fam2.1 aminoacylation ribozyme variant] | 0.975 | 1.6 | 1.43 | 1.53 | 1.26 | 1.8
AUUACGCUGGUCAUCGAGUGC [Fam2.1 aminoacylation ribozyme variant] | 1.4 | 1.02 | 1.44 | 1.33 | 1.31 | 1.24
AUUACGCUGGUCAUCGGGUGA [Fam2.1 aminoacylation ribozyme variant] | 60.9 | 6.21 | 8.98 | 7.46 | 7.84 | 9.36
AUUACGCUGUUCAUCGAGUGA [Fam2.1 aminoacylation ribozyme variant] | 4.19 | 2.4 | 3.87 | 2.71 | 3.57 | 4.58
